Assay results as given in patent publication US20150239983A1 (University of California, published 2015).

T1: purified PSCA-Fc (human, UniProt O43653 12-83, limits assumed)
T1 construct: not shown: Fc part
T1 sequence: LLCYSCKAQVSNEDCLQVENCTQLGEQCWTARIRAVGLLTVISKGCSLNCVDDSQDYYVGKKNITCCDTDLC


Target: T1, purified PSCA-Fc
Experiment: competition ELISA, wells coated with purified PSCA-Fc; reference is the parental 2B3 minibody
Method: The ranking of the four minibodies was determined by competition ELISA and flow cytometry (FIG. 5).
Competition ELISA: PSCA relative binding affinity for the minibodies was determined by competition ELISA in which microtiter plate wells were coated with purified PSCA-Fc (Olafsen T, et al. J. Irrununotherapy 2007: 30:396).

Row | Binder | improvement of relative affinity compared to the parental [fold]
1 | A2 anti-PSCA minibody (other, also called A2 minibody; variant A2) DIQLTQSPSSLSASVGDRVTITCSASSSVRFIHWYQQKPGKAPKRLIYDTSKLASGVPSRFSGSGSGTDFTLTISSLQPEDFATYYCQQWGSSPFTFGQGTKVEIKGSTSGGGSGGGSGGGGSEVQLVESGGGLVQPGGSLRLSCAASGFNIKDYYIHWVRQAPGKGLEWVAWIDPEYGDSEFVPKFQGRATMSADTSKNTAYLQMNSLRAEDTAVYYCKTGGFWGRGTLVTVSSEPKSCDKTHTCPPCGGGSSGGGSGGQPREPQVYTLPPSRDELTKNQVSLTCLVKGFYPSDIAVEWESNGQPENNYKTTPPVLDSDGSFFLYSKLTVDKSRWQQGNVFSCSVMHEALHNHYTQKSLSLSPGK | 4.4
2 | A11 anti-PSCA minibody (other, also called A11 minibody; variant A11) DIQLTQSPSTLSASMGDRVTITCSASSSVRFIHWYQQKPGKAPKRLIYDTSKLASGVPSRFSGSGSGTDFTLTISSLQPEDFATYYCQQWGSSPFTFGQGTKVEIKGSTSGGGSGGGSGGGGSSEVQLVEYGGGLVQPGGSLRLSCAASGFNIKDYYIHWVRQAPGKGLEWVAWIDPENGDTEFVPKFQGRATMSADTSKNTAYLQMNSLRAEDTAVYYCKTGGFWGQGTLVTVSSEPKSCDKTHTCPPCGGGSSGGGSGGQPREPQVYTLPPSRDELTKNQVSLTCLVKGFYPSDIAVEWESNGQPENNYKTTPPVLDSDGSFFLYSKLTVDKSRWQQGNVFSCSVMHEALHNHYTQKSLSLSPGK | 3
3 | C5 anti-PSCA minibody (other, also called C5 minibody; variant C5) DIQLIQSPSSLSASVGDRVTITCSASSSVRFIHWYQQKPGKAPKRLIYDTSKLASGVPSRFSGSGSGTDFTLTISSLQPEDFATYYCQQWSSSPFTFGQGTKVEIKGSTSGGGSGGGSGGGGSSEVQLVESGGGLVQPGGSLRLSCAASGFNIKDYYIHWVRQAPGKGLEWVAWIDPENGDTEFVPKFQGRATISADTSKNTVYLQMNSLRAKDTAVYYCKTGGFWGQGTLVTVSSEPKSCDKTHTCPPCGGGSSGGGSGGQPREPQVYTLPPSRDELTKNQVSLTCLVKGFYPSDIAVEWESNGQPENNYKTTPPVLDSDGSFFLYSKLTVDKSRWQQGNVFSCSVMHEALHNHYTQKSLSLSPGK | 1.9
